The values below come from paper doi:10.1101/2022.09.02.506315 (bioRxiv, 2022).

The chains are these.
B1: Thermus thermophilus transcription termination factor Rho (natural protein, UniProt Q5SJE9 1-426, looked up)
chain: MRRKETLQETPLTYQELASKILPELHLLAQEAGIEGYKRMKKDQLIMALLERQTQGEGLRLVKGYLEISQDGYGFLTENLHNLESRVAIVSAGLIKQYALRAGDYVVGQARPPRENERYATLLKVEAVNNLDPEAAKNRPRFDELTPQFPDRQIRLETTPDELSTRVIDLLAPIGRGQRGLIVAPPKAGKTTLLKKIANAVLKNEPDIKVIVLLIDERPEEVTDFRESVQGAEVIASTFDEPPQNHIRVAEFVHERAKRIVEEGGHVMILLDSITRLARANNLVTPPTGRTLSGGLDSAALYFPKRFLGAARNIRGGGSLTILATALVETGSRMDDVIFEEFKGTGNMELHLSRRLEERRIFPAIDILKSGTRREELLLGEEVTHKMWLLRKVLADMDPAEAMEMLLARLARTKNNKEFLASLAAR
B2: Thermus thermophilus RNA polymerase ω subunit (natural protein)
chain: MAEPGIDKLFGMVDSKYRLTVVVAKRAQQLLRHGFKNTVLEPEERPKMQTLEGLFDDPNAVTWAMKELLTGRLVFGENLVPEDRLQKEMERLYPVEREE

Common to all, as to experiment: cryo-EM structure
The target of series [1] is Thermus thermophilus RNA polymerase β' subunit (Thermus thermophilus, UniProt Q8RQE8 1-1524).
Sequence of Thermus thermophilus RNA polymerase β' subunit (Q8RQE8 whole entry): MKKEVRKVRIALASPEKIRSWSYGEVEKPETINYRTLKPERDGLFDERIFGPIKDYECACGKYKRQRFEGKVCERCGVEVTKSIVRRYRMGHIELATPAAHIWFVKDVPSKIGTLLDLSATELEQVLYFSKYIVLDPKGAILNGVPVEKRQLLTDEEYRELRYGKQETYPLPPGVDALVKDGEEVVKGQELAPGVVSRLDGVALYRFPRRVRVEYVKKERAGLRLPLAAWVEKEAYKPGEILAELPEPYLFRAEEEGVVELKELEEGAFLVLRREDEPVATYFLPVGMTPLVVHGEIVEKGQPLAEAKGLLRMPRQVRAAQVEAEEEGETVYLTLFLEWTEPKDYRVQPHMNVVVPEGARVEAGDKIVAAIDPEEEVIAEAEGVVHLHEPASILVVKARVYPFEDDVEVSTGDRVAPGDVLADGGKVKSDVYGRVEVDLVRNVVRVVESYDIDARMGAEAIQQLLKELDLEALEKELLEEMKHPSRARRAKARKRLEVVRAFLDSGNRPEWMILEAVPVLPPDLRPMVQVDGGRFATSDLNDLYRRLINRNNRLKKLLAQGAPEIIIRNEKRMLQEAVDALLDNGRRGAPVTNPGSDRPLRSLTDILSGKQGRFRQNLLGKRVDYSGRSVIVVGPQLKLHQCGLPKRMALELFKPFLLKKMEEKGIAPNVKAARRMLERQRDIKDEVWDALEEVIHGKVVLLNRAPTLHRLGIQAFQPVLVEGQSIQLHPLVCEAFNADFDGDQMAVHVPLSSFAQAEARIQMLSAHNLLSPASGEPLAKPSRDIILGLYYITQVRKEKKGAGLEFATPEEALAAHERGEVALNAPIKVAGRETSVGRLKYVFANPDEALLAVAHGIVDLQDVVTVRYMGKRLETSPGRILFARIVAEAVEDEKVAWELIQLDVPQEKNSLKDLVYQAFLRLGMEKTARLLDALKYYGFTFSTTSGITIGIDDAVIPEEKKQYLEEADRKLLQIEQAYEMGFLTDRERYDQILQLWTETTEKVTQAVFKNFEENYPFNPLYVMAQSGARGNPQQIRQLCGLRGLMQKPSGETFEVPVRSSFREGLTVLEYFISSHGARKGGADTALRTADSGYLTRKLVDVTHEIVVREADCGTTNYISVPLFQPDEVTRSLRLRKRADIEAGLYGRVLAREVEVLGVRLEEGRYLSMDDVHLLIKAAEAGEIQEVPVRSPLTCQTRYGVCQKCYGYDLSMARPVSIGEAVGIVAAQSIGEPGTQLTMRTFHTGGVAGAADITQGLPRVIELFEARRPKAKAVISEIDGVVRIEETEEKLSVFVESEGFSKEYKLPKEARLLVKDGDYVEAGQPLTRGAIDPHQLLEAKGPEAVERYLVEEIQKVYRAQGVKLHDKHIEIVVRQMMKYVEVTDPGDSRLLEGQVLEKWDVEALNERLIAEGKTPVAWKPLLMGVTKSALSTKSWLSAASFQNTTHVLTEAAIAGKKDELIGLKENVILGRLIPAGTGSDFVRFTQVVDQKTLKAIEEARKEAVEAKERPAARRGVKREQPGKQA
Series [2] deals with the molecule itself.
Series [3] concerns the target Thermus thermophilus RNA polymerase β subunit (Thermus thermophilus, UniProt Q8RQE9 1-1119).
Series [4] addresses B1.

Sequence of Thermus thermophilus RNA polymerase β subunit (Q8RQE9 whole entry): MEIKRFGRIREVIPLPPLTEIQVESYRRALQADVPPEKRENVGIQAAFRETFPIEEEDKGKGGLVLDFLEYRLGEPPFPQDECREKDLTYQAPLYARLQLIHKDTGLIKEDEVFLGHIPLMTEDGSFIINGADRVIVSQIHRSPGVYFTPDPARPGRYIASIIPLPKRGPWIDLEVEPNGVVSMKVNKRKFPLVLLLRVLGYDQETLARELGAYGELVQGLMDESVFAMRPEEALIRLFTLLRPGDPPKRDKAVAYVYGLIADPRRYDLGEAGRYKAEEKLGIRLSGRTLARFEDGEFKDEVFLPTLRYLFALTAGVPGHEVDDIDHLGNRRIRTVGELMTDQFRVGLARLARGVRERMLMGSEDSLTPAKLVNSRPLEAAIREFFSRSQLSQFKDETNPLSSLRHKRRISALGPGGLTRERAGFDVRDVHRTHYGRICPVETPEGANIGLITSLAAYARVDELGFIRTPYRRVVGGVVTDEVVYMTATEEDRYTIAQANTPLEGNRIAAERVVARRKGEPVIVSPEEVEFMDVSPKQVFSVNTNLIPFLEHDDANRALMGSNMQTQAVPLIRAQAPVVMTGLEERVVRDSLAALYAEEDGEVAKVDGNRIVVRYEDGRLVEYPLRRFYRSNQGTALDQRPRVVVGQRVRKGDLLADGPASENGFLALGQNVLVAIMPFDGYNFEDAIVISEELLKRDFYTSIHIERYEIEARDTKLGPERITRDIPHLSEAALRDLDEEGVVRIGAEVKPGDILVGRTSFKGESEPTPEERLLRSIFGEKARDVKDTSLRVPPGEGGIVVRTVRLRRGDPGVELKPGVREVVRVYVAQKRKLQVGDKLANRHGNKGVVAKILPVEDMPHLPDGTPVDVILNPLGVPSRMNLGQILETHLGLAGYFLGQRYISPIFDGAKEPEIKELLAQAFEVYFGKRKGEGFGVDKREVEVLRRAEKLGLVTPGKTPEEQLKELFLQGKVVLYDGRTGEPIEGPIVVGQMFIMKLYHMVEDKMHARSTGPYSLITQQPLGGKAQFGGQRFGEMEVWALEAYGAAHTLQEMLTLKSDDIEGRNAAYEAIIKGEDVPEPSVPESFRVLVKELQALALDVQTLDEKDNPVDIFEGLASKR

Usually stoichiometry N stands for the number of molecules, sites or subunits per partner or assembly. For B1, the binding result in series [1] and in series [3] was “binds” in each case. Besides, the “stoichiometry N” value in series [2] was 6.
For B2, the binding result in series [4] was “binds”.
